The target of this assay is T1, soluble EGFR (amino acids 1-621) (UniProt P00533 25-645).
T1 construct: range 1-621; Amine-coupled to a CM-5 chip on flowcell 3; also called soluble ErbB1; ErbB-1
As to the kind of experiment: BIAcore 3000, receptor amine-coupled to CM-5 chip, peptide injected. The method, then:
Biosensor analyses were performed using a BIAcore™ 3000. A CM-5 (research grade) sensor chip was immobilized with soluble EGFR (amino acids 1-501), soluble EGFR (amino acids 1-621) and soluble ErbB2 (amino acids 1-509) on flowcells 2, 3 and 4, respectively. Immobilizations were performed using amine coupling chemistry in 10 mM Sodium Acetate at pH 4.2. Varying concentrations (1.25 μM, 2.5 μM, 5 μM and 10 μM) of peptides were injected (30 μl) over the sensor surfaces in HBS running buffer (10 mM HEPES, 3.4 mM EDTA, 0.15M NaCl, 0.005% Tween 20, pH 7.4) at a flow rate of 5 μl/min. The surfaces were then regenerated by injecting 10 μl of 10 mM NaOH at a flow rate of 20 μl/min. The resulting sensor curves were subtracted against the blank channel (Flowcell 1) to yield the specific response.
In general terms: In SPR one partner is held on a chip, and binding of the other changes the refractive index at the surface.

We go through 1 molecule from patent publication US20090131308A1 (AGOS BIOTECH, published 2009).

Positions of bridges follow the written chain, without caps; N, C: chain ends. No end group written: not given here.

B1: Human NRG2 (1-32) (peptide)
peptide: GHARKCNETAKSYCVNGGVCYYIEGINQLSCK-OH
modifications: disulfide 14-20, 6-31; N-terminus assumed
SMILES: CC[C@H](C)[C@@H]1NC(=O)CNC(=O)[C@H](CCC(=O)O)NC(=O)[C@H]([C@@H](C)CC)NC(=O)[C@H](Cc2ccc(O)cc2)NC(=O)[C@H](Cc2ccc(O)cc2)NC(=O)[C@@H]2CSSC[C@H](NC(=O)[C@H](Cc3ccc(O)cc3)NC(=O)[C@H](CO)NC(=O)[C@H](CCCCN)NC(=O)[C@H](C)NC(=O)[C@H]([C@@H](C)O)NC(=O)[C@H](CCC(=O)O)NC(=O)[C@H](CC(N)=O)NC(=O)[C@@H](NC(=O)[C@H](CCCCN)NC(=O)[C@H](CCCNC(=N)N)NC(=O)[C@H](C)NC(=O)[C@H](Cc3c[nH]cn3)NC(=O)CN)CSSC[C@@H](C(=O)N[C@@H](CCCCN)C(=O)O)NC(=O)[C@H](CO)NC(=O)[C@H](CC(C)C)NC(=O)[C@H](CCC(N)=O)NC(=O)[C@H](CC(N)=O)NC1=O)C(=O)N[C@@H](C(C)C)C(=O)N[C@@H](CC(N)=O)C(=O)NCC(=O)NCC(=O)N[C@@H](C(C)C)C(=O)N2
notes: V8 digestion and mass spectrometry indicate C1-C4 and C2-C3 disulfide bridges; also called hNRG2 (1-32); hNRG2(1-32)
Regarding B1, the binding result was “no binding (tested: up to 10 uM)”.
